Square brackets hold non-standard residues; d marks the D form. Ends that are not written are not given here. Peptide text beside a SMILES is read from it. * marks the point of attachment. Benzoyl(4-octyl) = CCCCCCCCc1ccc(C(=O)*)cc1; pT = C[C@@H](OP(=O)(O)O)[C@H](N)C(=O)O; X1 = CCCCCCCCCc1ccc(C(=O)*)cc1
Experiments:
HeLa cells = assay: MTT cell viability assay, HeLa; assay type: cell-based; details: no delivery agent
Protocol: (§1) Accordingly, cell viability was measured using an MTT assay to determine the anti-proliferative activity for Compounds No. 15, 16, 17, and 18 with regard to three different cell types (HeLa, PC-3, and A549). The cells utilized were chosen due to reported synthetic lethal interactions with PLK1 inhibition

PC-3 cells = assay: MTT cell viability assay, PC-3; assay type: cell-based; details: PC-3, PTEN deficient prostate cancer, no delivery agent
Protocol: as §1

A549 cells = assay: MTT cell viability assay, A549; assay type: cell-based; details: A549, Kras mutant lung cancer, no delivery agent
Protocol: as §1

[1] = tested on: RPE cells expressing PLK1 C67V mutant; assay type: cell-based; details: for sensitivity of RPE cells to FLIPs, in words: FIG. 8
PLK1 PBD = PLK1 PBD (Homo sapiens, UniProt P53350); assay: Fluorescence polarization competitive binding assay, PLK1 PBD
Sequence of PLK1 PBD (P53350 367-603 limits assumed): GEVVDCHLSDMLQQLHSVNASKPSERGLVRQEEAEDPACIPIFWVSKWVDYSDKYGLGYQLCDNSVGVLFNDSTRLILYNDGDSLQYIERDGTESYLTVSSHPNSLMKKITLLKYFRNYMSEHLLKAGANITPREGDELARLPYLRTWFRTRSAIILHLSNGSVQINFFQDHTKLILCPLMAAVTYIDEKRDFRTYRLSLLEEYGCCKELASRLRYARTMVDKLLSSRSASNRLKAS
Protocol: (§2) According to the assay, binding of a fluorescent tracer peptide to a protein increased polarization of the emitted fluorescence. […] The ability of test molecules to bind to the PBD was quantitated by a reduction in mP values that occurred as the tracer was displaced from the PBD, and plotted to calculate as an IC50 value.
(§3) The affinities of the peptides for PLK1 and PLK3 were measured by plotting the loss of polarization against increasing concentration of competitor peptide through use of an optimized assay and selectivity determination.

PLK3 PBD = molecular target: T1, PLK3 PBD (Homo sapiens, UniProt Q9H4B4); assay: Fluorescence polarization competitive binding assay, PLK3 PBD
T1 construct: A similar assay format was developed for the PLK3 PBD
T1 sequence (Q9H4B4 335-646 limits assumed): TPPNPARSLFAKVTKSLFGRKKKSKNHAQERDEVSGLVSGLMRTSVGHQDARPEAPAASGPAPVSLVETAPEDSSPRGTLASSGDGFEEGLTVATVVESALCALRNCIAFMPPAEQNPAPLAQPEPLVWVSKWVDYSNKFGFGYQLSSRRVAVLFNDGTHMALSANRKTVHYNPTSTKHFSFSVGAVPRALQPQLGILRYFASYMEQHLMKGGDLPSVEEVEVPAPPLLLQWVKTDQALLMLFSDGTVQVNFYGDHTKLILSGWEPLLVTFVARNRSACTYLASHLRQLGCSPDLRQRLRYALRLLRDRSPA
Protocol: (§4) The binding of fluorescein-labelled tracer peptides used for both assays was determined to see if there was a difference in affinity for their respective PBD. A titration curve for each tracer/PLK PBD complex was generated to determine Kd values for each and therefore compare the relative binding affinities.
as §3

PC3 cells = assay: Cell cycle analysis of serum-starved PC3 cells; assay type: cell-based; details: 200 μM, 24 hours, PC3 synchronized by serum starvation; mock 19.9%
Protocol: To examine the cellular phenotype of PLK1 inhibition through the Polo-box domain, PC3 cells synchronized in G1 through serum starvation were treated with Compound No. 16. Cells were synchronized by serum starvation for 24 hours prior to treatment. Untreated cells were serum starved and then released into drug-free media for 24 hours (left panel) as control. Sample cells were serum starved and then treated with 200 μM Compound No. 16 for 24 hours (right panel).

[2] = tested on: RPE cells expressing wild-type PLK1; assay type: cell-based; details: read-out: growth inhibition, RPE cells expressing wild-type PLK1
[3] = tested on: BubR1 phosphorylation in PC-3 cells; assay: Immunoblotting for BubR1 phosphorylation and pHH3 in PC-3 cells; assay type: cell-based; details: 5-30 μM, 23 hours
Protocol: To measure the PLK1 inhibitory activity of the FLIPs in cells, phosphorylation of the mitotic protein BubR1 was measured. PC-3 cells were serum starved for 72 h and released from the G1-S boundary. 16 h after released, cells were arrested at prometaphase by treatment with 100 ng/ml Colcemid or treated with 50 nM BI2536 PLK1 kinase inhibitor or 5-30 μM of Compound No. 18 for 23 hours. Cells were trypsinized and whole cell lysate was prepared. The obtained total cell lysate was subjected to immunoblotting with anti-BubR1 (top panel, FIG. 9), anti-β tubulin (middle panel, FIG. 9), and anti-pHH3 (bottom panel, FIG. 9).

[4] = molecular target: polo-box domain (PBD) of polo-like kinase 1 (PLK1) (UniProt P53350); assay: fluorescence polarization competition on PLK1 PBD
Sequence of polo-box domain (PBD) of polo-like kinase 1 (PLK1) (UniProt P53350) (P53350 367-603 limits assumed): as the sequence (P53350 367-603 limits assumed) above

[5] = molecular target: polo-box domain (PBD) of polo-like kinase 3 (PLK3) (UniProt Q9H4B4); assay: fluorescence polarization competition on PLK3 PBD
[6] = molecular target: polo-box domain (PBD) of polo-like kinase 1 (PLK1) (UniProt P53350); assay: from FP IC50s, (IC50 PLK3 PBD/IC50 PLK1 PBD)x5; PLK1 PBD against PLK3 PBD
[7] = molecular target: polo-like kinase 1 (PLK1), wild type, in cells (UniProt P53350 2-603, limits assumed); assay: cell-based or functional assay
Sequence of polo-like kinase 1 (PLK1), wild type, in cells (P53350 2-603 limits assumed): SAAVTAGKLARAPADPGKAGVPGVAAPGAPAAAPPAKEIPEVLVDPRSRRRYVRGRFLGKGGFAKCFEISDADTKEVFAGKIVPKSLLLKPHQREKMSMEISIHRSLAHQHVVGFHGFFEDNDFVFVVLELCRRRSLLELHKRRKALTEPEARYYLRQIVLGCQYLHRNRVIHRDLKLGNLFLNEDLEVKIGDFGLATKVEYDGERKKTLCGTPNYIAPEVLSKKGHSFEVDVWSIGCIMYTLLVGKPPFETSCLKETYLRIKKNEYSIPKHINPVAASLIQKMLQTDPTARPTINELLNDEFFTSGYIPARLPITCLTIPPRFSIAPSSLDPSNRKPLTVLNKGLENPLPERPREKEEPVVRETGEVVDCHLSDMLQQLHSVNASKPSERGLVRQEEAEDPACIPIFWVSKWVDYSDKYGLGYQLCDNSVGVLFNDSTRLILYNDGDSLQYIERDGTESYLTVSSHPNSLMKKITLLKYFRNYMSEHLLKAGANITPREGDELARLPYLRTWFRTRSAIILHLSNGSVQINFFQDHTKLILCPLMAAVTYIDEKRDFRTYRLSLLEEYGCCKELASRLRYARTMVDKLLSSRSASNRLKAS

[8] = molecular target: polo-box domain (PBD) of polo-like kinase 1 (PLK1) (UniProt P53350); assay: from FP IC50s; PLK1 PBD against PLK3 PBD
[9] = molecular target: polo-box domain (PBD) of polo-like kinase 1 (PLK1) (UniProt P53350); assay: fluorescence polarization competition, displacement of tracer peptide from PLK1 PBD
[10] = molecular target: polo-box domain (PBD) of polo-like kinase 3 (PLK3) (UniProt Q9H4B4); assay: fluorescence polarization competition, displacement of tracer peptide from PLK3 PBD
[11] = molecular target: T2, polo-box domain (PBD) of polo-like kinase 1 (PLK1) (UniProt P53350 367-603, limits assumed); assay: fluorescence polarization competition on PLK1 PBD
T2 construct: domain: polo-box domain (PBD); the background speaks of the four known human PLKs and the residue numbers (L491) fit human PLK1; also called PLK1 PBD; PBD of PLK1
T2 sequence (P53350 367-603 limits assumed): as the sequence (P53350 367-603 limits assumed) above

[12] = molecular target: T2, polo-box domain (PBD) of polo-like …; assay: fluorescence polarization competition, displacement of tracer peptide from PLK1 PBD
Description: as §2, with “IC₅₀” for “IC50”

[13] = molecular target: T3, polo-box domain (PBD) of polo-like kinase 3 (PLK3) (UniProt Q9H4B4 335-646, limits assumed); assay: fluorescence polarization titration of tracer with PLK3 PBD
T3 construct: domain: polo-box domain (PBD); also called PLK3 PBD; PBD of PLK3
T3 sequence (looked up): T1 sequence (Q9H4B4 335-646 limits assumed)
Protocol: as §2, with “IC₅₀” for “IC50”
as §4

[14] = molecular target: T3, polo-box domain (PBD) of polo-like …; assay: fluorescence polarization competition, displacement of tracer peptide from PLK3 PBD
Protocol: as §2, with “IC₅₀” for “IC50”
as §4, §3

CCCCCCCCc1ccc(C(=O)N[C@@H](CO)C(=O)N[C@H](C(=O)N[C@@H](C)C(=O)N[C@H](C(=O)O)[C@@H](C)CC)[C@@H](C)OP(=O)(O)O)cc1 [Compound 15] ({Benzoyl(4-octyl)}-S[pT]AI-OH; C-terminus assumed)
IC50 (HeLa cells): 128 µM
IC50 (PC-3 cells): 55.7 µM
IC50 (A549 cells): 79.5 µM
sensitivity of RPE cells to FLIPs, in words [1]: sensitive

CCCCCCCCc1ccc(C(=O)N[C@@H](CO)C(=O)N[C@H](C(=O)N2CCC[C@H]2C(=O)N[C@@H](CC(C)C)C(=O)O)[C@@H](C)OP(=O)(O)O)cc1 [Compound 16] ({Benzoyl(4-octyl)}-S[pT]PL-OH; C-terminus assumed)
fold reduction of PLK1 PBD binding relative to parent compound (PLK1 PBD): 3-4 fold
fold reduction of PLK3 PBD binding relative to parent compound (PLK3 PBD): 3-4 fold
IC50 (PLK3 PBD; competition with fluorescent tracer peptide, read-out: PLK3 PBD FP IC50): 620 ± 72.5 µM
accumulation in G2/M (PC3 cells): 53%
IC50 [2]: 158 µM
IC50 ([1]; C67V mutant PLK1, read-out: growth inhibition, RPE cells expressing PLK1 C67V mutant): 86.8 µM
sensitivity of RPE cells to FLIPs, in words [1]: sensitive

CCCCCCCCCc1ccc(C(=O)N[C@@H](CO)C(=O)N[C@H](C(=O)N[C@@H](C)C(=O)N[C@H](C(N)=O)[C@@H](C)CC)[C@@H](C)OP(=O)(O)O)cc1 [Compound 18] (X1-S[pT]AI-NH2; N-terminus assumed)
BubR1 phosphorylation (anti-BubR1 immunoblot) [3]: inhibited the BubR1 phosphorylation
mitotic block (anti-pHH3 immunoblot) [3]: blocked the cells at mitosis

GPLATS[pT]PNGL (SEQ ID NO: 8)
fold reduction of affinity against the PLK3 consensus peptide (SEQ ID NO: 7) [4]: 2 fold
fold reduction of affinity against the PLK3 consensus peptide (SEQ ID NO: 7) [5]: 3 fold
Selectivity Index [6]: 2860

B1: Compound No. 17, 4-octyl S[pT]AI (SEQ ID NO: 13), R1 group on the C-terminal (peptide)
peptide: S[pT]AI
modifications: also: 4-octyl R1 group on C-terminus, 'C-terminal amidated octyl', terminal chemistry unclear
MTT IC50 [µM] HeLa [7]: 38.9 µM
MTT IC50 [µM] PC-3 [7]: 41.5 µM
Selectivity Index [8]: 79
IC50 [9]: 1.49 µM
IC50 [10]: 117 µM

{Benzoyl(4-octyl)}-S[pT]PL [Compound No. 16, 4-octyl S[pT]PL (SEQ ID NO: 14)]
MTT IC50 [µM] A549 [7]: 160 µM
MTT IC50 [µM] HeLa [7]: 142 µM
MTT IC50 [µM] PC-3 [7]: 103 µM
Selectivity Index [8]: 2580
fold weaker affinity against Compound No. 15 [4]: 3 to 4 fold
fold weaker affinity against Compound No. 15 [5]: 3 to 4 fold
IC50 [9]: 1.2 µM

{4‑(propylamino)benzoyl}-S[pT]PNGL (also: further groups not given here, see m14; also called Compound No. 9) [Compound #9, propylamino FLIP (R1 = NCH2CH2CH3)]
fold increase of activity against Compound #8 [11]: > 2 fold
IC50 [12]: 5.4 µM

B2: Compound No. 18, 4-nonyl S[pT]AI (SEQ ID NO: 13), R1 group on the C-terminal (peptide)
peptide: S[pT]AI
modifications: also: 4-nonyl R1 group on C-terminus, 'C-terminal amidated nonyl', terminal chemistry unclear
MTT IC50 [µM] HeLa [7]: 38.2 µM
MTT IC50 [µM] PC-3 [7]: 27 µM
Selectivity Index [8]: 78
IC50 [9]: 1.23 µM
IC50 [10]: 95.9 µM

B3: PLK3 binding tracer (fluorescein-labelled SEQ ID NO: 7) (peptide)
peptide: GPLATS[pT]PKNG
modifications: also: fluorescein-labelled, site not given here
notes: also called PLK3 tracer; fluorescein-labelled tracer for the PLK3 PBD
Kd [13]: 0.0272 µM

LLCS[pT]PNGL (also called native Cdc25C peptide) [Cdc25C PBD substrate peptide LLCS[pT]PNGL (SEQ ID NO: 1)]
Selectivity Index [6]: > 17000
IC50 [9]: 0.17 µM
IC50 [14]: > 600 µM

— patent US20190269784A1, “Selective Inhibitors of the Polo-Like Kinase 1 Polo-Box Domain” (UNIVERSITY OF SOUTH CAROLINA, priority 2018, published 2019)
